Assay results: patent CN111363043A (FUZHOU MAIXIN BIOTECHNOLOGY DEV CO LTD, dated 2020)

Target: T1, CD20蛋白 (UniProt P11836, 297 amino acids) (human, UniProt P11836 1-297)
T1 construct: whole, on cells; Endogenous CD20 in formalin-fixed paraffin tissue sections (B-cell lymphoma, tonsil, appendix) detected by IHC. 'Human' is stated for CD20 in the abstract; The species of the tissues is not explicitly stated
T1 sequence (looked up): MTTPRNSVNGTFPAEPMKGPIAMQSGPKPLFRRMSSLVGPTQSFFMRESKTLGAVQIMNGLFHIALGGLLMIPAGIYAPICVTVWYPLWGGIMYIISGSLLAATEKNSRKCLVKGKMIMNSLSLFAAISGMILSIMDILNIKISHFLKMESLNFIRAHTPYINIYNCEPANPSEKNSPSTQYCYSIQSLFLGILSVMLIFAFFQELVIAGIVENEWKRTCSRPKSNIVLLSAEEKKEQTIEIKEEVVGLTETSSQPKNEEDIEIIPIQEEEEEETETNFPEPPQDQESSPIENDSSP
Assay: IHC, appendix tissue (Fig. 5)

binding result: binds
B1: 抗CD20蛋白单克隆抗体 (secreted by mouse hybridoma cell line AbM58020-32A8-PU, CGMCC NO.17491) (antibody, V domains shown)
VH: EVKLQESGPSLVKPGASVKISCKASGNTFTDYYMNWVRQSHGQSLEWIGRFIPSTAKTNYNHKFKDKATLTLDTSLSTAYMQLNSLTSEDSAVYYCRSDFAFWGQGTLVTVSA
VL: DILMTQSPLSLSITIGQPASISCKSSQSLLYSNGKTYLNWLLQRPGQSPKRLIYIVSKLDSGVPDRFTGSGSGTDFTLKISRVEAEDLGVYYCGQGTHYPPTFGGGTKLEIK
notes: also called AbM58020-32A8-PU的CD20; AbM58020-32A8-PU杂交瘤分泌抗体
